Test results as given in paper doi:10.1101/2020.08.11.243964.

Biological target: Human connexin 26 protein (hCx26) (human) (UniProt P29033)
Experiment: cryo-EM structure

Substance: Human connexin 26 protein (hCx26) (from UniProt P29033) (natural protein)
- stoichiometry N: 12
